Molecular target: テネイシンC (human) (UniProt P24821)
Assay: SPR (Biacore 2000)

Kd: 40 nM
B1: 抗TNC−4F10のscFvフラグメント(scFv 4F10) (scFv, not shown: small tags and cut ends)
scFv: EVLLQQSGPELVKPGASVKIPCKASGYTFTDYNMDWMKQSHGKSLEWIGDINPKSGNSIYNQKFKGKATLTVDKSSSTAYMELRSLTSEDTAVYYCAGRDWSAWFAFWGQGTLVSVSAGGGGSGGGGSGGGGSDVVMTQTPLTLSVIIGQPASISCKSSQSLLYSNGKTYLNWLLQRPGQSPKRLIYLVSKLDSGVPDRFTGSGSGTDFTLKISRVEAEDLGDYYCVQTTHFPWTFGGGTKLEIKDYKDDDDK
